System: human HL60 cells
Assay: SWATH-MS proteomics, differential protein representation, akirin2 KO vs WT HL60 cells
Format: cell-based
Conditions: sheet "Under-represented in KO"
Outline: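 WT and akirin2 KO HL60 lysates (150 µg, n=3 biological replicates) were FASP trypsin-digested and desalted. A spectral library was built by IDA from 3 µg digests, then 5 µg per sample went to variable-window SWATH DIA over a 120-min 5–30% acetonitrile gradient. Identifications were accepted at 1% global FDR, with total-area-sum normalization.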

Row | Molecule | Fold Change (KO vs WT HL60 cells) | Log (Fold Change) (KO vs WT HL60 cells) | Fold Change (akirin2 KO vs WT HL60 cells) | Log (Fold Change) (akirin2 KO vs WT HL60 cells)
1 | sp¦Q92878¦RAD50_HUMAN (protein, UniProt Q92878 1-1312, looked up) DNA repair protein RAD50: MSRIEKMSILGVRSFGIEDKDKQIITFFSPLTILVGPNGAGKTTIIECLKYICTGDFPPGTKGNTFVHDPKVAQETDVRAQIRLQFRDVNGELIAVQRSMVCTQKSKKTEFKTLEGVITRTKHGEKVSLSSKCAEIDREMISSLGVSKAVLNNVIFCHQEDSNWPLSEGKALKQKFDEIFSATRYIKALETLRQVRQTQGQKVKEYQMELKYLKQYKEKACEIRDQITSKEAQLTSSKEIVKSYENELDPLKNRLKEIEHNLSKIMKLDNEIKALDSRKKQMEKDNSELEEKMEKVFQGTDEQLNDLYHNHQRTVREKERKLVDCHRELEKLNKESRLLNQEKSELLVEQGRLQLQADRHQEHIRARDSLIQSLATQLELDGFERGPFSERQIKNFHKLVRERQEGEAKTANQLMNDFAEKETLKQKQIDEIRDKKTGLGRIIELKSEILSKKQNELKNVKYELQQLEGSSDRILELDQELIKAERELSKAEKNSNVETLKMEVISLQNEKADLDRTLRKLDQEMEQLNHHTTTRTQMEMLTKDKADKDEQIRKIKSRHSDELTSLLGYFPNKKQLEDWLHSKSKEINQTRDRLAKLNKELASSEQNKNHINNELKRKEEQLSSYEDKLFDVCGSQDFESDLDRLKEEIEKSSKQRAMLAGATAVYSQFITQLTDENQSCCPVCQRVFQTEAELQEVISDLQSKLRLAPDKLKSTESELKKKEKRRDEMLGLVPMRQSIIDLKEKEIPELRNKLQNVNRDIQRLKNDIEEQETLLGTIMPEEESAKVCLTDVTIMERFQMELKDVERKIAQQAAKLQGIDLDRTVQQVNQEKQEKQHKLDTVSSKIELNRKLIQDQQEQIQHLKSTTNELKSEKLQISTNLQRRQQLEEQTVELSTEVQSLYREIKDAKEQVSPLETTLEKFQQEKEELINKKNTSNKIAQDKLNDIKEKVKNIHGYMKDIENYIQDGKDDYKKQKETELNKVIAQLSECEKHKEKINEDMRLMRQDIDTQKIQERWLQDNLTLRKRNEELKEVEEERKQHLKEMGQMQVLQMKSEHQKLEENIDNIKRNHNLALGRQKGYEEEIIHFKKELREPQFRDAEEKYREMMIVMRTTELVNKDLDIYYKTLDQAIMKFHSMKMEEINKIIRDLWRSTYRGQDIEYIEIRSDADENVSASDKRRNYNYRVVMLKGDTALDMRGRCSAGQKVLASLIIRLALAETFCLNCGIIALDEPTTNLDRENIESLAHALVEIIKSRSQQRNFQLLVITHDEDFVELLGRSEYVEKFYRIKKNIDQCSEIVKCSVSSLGFNVH | 0.4495 | -0.3473 |  | 
2 | sp¦Q7L5N7¦PCAT2_HUMAN (protein, UniProt Q7L5N7 1-544, looked up) Lysophosphatidylcholine …: MSRCAQAAEVAATVPGAGVGNVGLRPPMVPRQASFFPPPVPNPFVQQTQIGSARRVQIVLLGIILLPIRVLLVALILLLAWPFAAISTVCCPEKLTHPITGWRRKITQTALKFLGRAMFFSMGFIVAVKGKIASPLEAPVFVAAPHSTFFDGIACVVAGLPSMVSRNENAQVPLIGRLLRAVQPVLVSRVDPDSRKNTINEIIKRTTSGGEWPQILVFPEGTCTNRSCLITFKPGAFIPGVPVQPVLLRYPNKLDTVTWTWQGYTFIQLCMLTFCQLFTKVEVEFMPVQVPNDEEKNDPVLFANKVRNLMAEALGIPVTDHTYEDCRLMISAGQLTLPMEAGLVEFTKISRKLKLDWDGVRKHLDEYASIASSSKGGRIGIEEFAKYLKLPVSDVLRQLFALFDRNHDGSIDFREYVIGLAVLCNPSNTEEIIQVAFKLFDVDEDGYITEEEFSTILQASLGVPDLDVSGLFKEIAQGDSISYEEFKSFALKHPEYAKIFTTYLDLQTCHVFSLPKEVQTTPSTASNKVSPEKHEESTSDKKDD | 0.4537 | -0.3432 |  | 
3 | sp¦Q9BXW7¦HDHD5_HUMAN (protein, UniProt Q9BXW7 24-423, looked up) Haloacid dehalogenase-like …: AAGLQGRPARRCYAVGPAQSPPTFGFLLDIDGVLVRGHRVIPAALKAFRRLVNSQGQLRVPVVFVTNAGNILQHSKAQELSALLGCEVDADQVILSHSPMKLFSEYHEKRMLVSGQGPVMENAQGLGFRNVVTVDELRMAFPLLDMVDLERRLKTTPLPRNDFPRIEGVLLLGEPVRWETSLQLIMDVLLSNGSPGAGLATPPYPHLPVLASNMDLLWMAEAKMPRFGHGTFLLCLETIYQKVTGKELRYEGLMGKPSILTYQYAEDLIRRQAERRGWAAPIRKLYAVGDNPMSDVYGANLFHQYLQKATHDGAPELGAGGTRQQQPSASQSCISILVCTGVYNPRNPQSTEPVLGGGEPPFHGHRDLCFSPGLMEASHVVNDVNEAVQLVFRKEGWALE | 0.4469 | -0.3498 |  | 
4 | sp¦P11387¦TOP1_HUMAN (protein, UniProt P11387 2-765, looked up) DNA topoisomerase 1: SGDHLHNDSQIEADFRLNDSHKHKDKHKDREHRHKEHKKEKDREKSKHSNSEHKDSEKKHKEKEKTKHKDGSSEKHKDKHKDRDKEKRKEEKVRASGDAKIKKEKENGFSSPPQIKDEPEDDGYFVPPKEDIKPLKRPRDEDDADYKPKKIKTEDTKKEKKRKLEEEEDGKLKKPKNKDKDKKVPEPDNKKKKPKKEEEQKWKWWEEERYPEGIKWKFLEHKGPVFAPPYEPLPENVKFYYDGKVMKLSPKAEEVATFFAKMLDHEYTTKEIFRKNFFKDWRKEMTNEEKNIITNLSKCDFTQMSQYFKAQTEARKQMSKEEKLKIKEENEKLLKEYGFCIMDNHKERIANFKIEPPGLFRGRGNHPKMGMLKRRIMPEDIIINCSKDAKVPSPPPGHKWKEVRHDNKVTWLVSWTENIQGSIKYIMLNPSSRIKGEKDWQKYETARRLKKCVDKIRNQYREDWKSKEMKVRQRAVALYFIDKLALRAGNEKEEGETADTVGCCSLRVEHINLHPELDGQEYVVEFDFLGKDSIRYYNKVPVEKRVFKNLQLFMENKQPEDDLFDRLNTGILNKHLQDLMEGLTAKVFRTYNASITLQQQLKELTAPDENIPAKILSYNRANRAVAILCNHQRAPPKTFEKSMMNLQTKIDAKKEQLADARRDLKSAKADAKVMKDAKTKKVVESKKKAVQRLEEQLMKLEVQATDREENKQIALGTSKLNYLDPRITVAWCKKWGVPIEKIYNKTQREKFAWAIDMADEDYEF | 0.4613 | -0.336 |  | 
5 | sp¦Q9P035¦HACD3_HUMAN (protein, UniProt Q9P035 1-362, looked up) Very-long-chain …: MENQVLTPHVYWAQRHRELYLRVELSDVQNPAISITENVLHFKAQGHGAKGDNVYEFHLEFLDLVKPEPVYKLTQRQVNITVQKKVSQWWERLTKQEKRPLFLAPDFDRWLDESDAEMELRAKEEERLNKLRLESEGSPETLTNLRKGYLFMYNLVQFLGFSWIFVNLTVRFCILGKESFYDTFHTVADMMYFCQMLAVVETINAAIGVTTSPVLPSLIQLLGRNFILFIIFGTMEEMQNKAVVFFVFYLWSAIEIFRYSFYMLTCIDMDWKVLTWLRYTLWIPLYPLGCLAEAVSVIQSIPIFNETGRFSFTLPYPVKIKVRFSFFLQIYLIMIFLGLYINFRHLYKQRRRRYGQKKKKIH | 0.4569 | -0.3402 |  | 
6 | sp¦P47985¦UCRI_HUMAN (protein, UniProt P47985 79-274, looked up) Cytochrome b-c1 complex …: SHTDIKVPDFSEYRRLEVLDSTKSSRESSEARKGFSYLVTGVTTVGVAYAAKNAVTQFVSSMSASADVLALAKIEIKLSDIPEGKNMAFKWRGKPLFVRHRTQKEIEQEAAVELSQLRDPQHDLDRVKKPEWVILIGVCTHLGCVPIANAGDFGGYYCPCHGSHYDASGRIRLGPAPLNLEVPTYEFTSDDMVIVG |  |  | 0.2341 | -0.6306
7 | RRRRRsp¦Q5VW38¦GP107_HUMAN (protein, UniProt Q5VW38 40-600, looked up) Protein GPR107: RVHHLALKDDVRHKVHLNTFGFFKDGYMVVNVSSLSLNEPEDKDVTIGFSLDRTKNDGFSSYLDEDVNYCILKKQSVSVTLLILDISRSEVRVKSPPEAGTQLPKIIFSRDEKVLGQSQEPNVNPASAGNQTQKTQDGGKSKRSTVDSKAMGEKSFSVHNNGGAVSFQFFFNISTDDQEGLYSLYFHKCLGKELPSDKFTFSLDIEITEKNPDSYLSAGEIPLPKLYISMAFFFFLSGTIWIHILRKRRNDVFKIHWLMAALPFTKSLSLVFHAIDYHYISSQGFPIEGWAVVYYITHLLKGALLFITIALIGTGWAFIKHILSDKDKKIFMIVIPLQVLANVAYIIIESTEEGTTEYGLWKDSLFLVDLLCCGAILFPVVWSIRHLQEASATDGKGDSMGPLQQRANLRAGSRIESHHFAQADLELLASSCPPASVSQRAGITAAINLAKLKLFRHYYVLIVCYIYFTRIIAFLLKLAVPFQWKWLYQLLDETATLVFFVLTGYKFRPASDNPYLQLSQEEEDLEMESVVTTSGVMESMKKVKKVTNGSVEPQGEWEGAV |  |  | 0.4419 | -0.3547
8 | sp¦O75915¦PRAF3_HUMAN (protein, UniProt O75915 1-188, looked up) PRA1 family protein 3: MDVNIAPLRAWDDFFPGSDRFARPDFRDISKWNNRVVSNLLYYQTNYLVVAAMMISIVGFLSPFNMILGGIVVVLVFTGFVWAAHNKDVLRRMKKRYPTTFVMVVMLASYFLISMFGGVMVFVFGITFPLLLMFIHASLRLRNLKNKLENKMEGIGLKRTPMGIVLDALEQQEEGINRLTDYISKVKE | 0.4503 | -0.3465 |  | 
9 | sp¦P25815¦S100P_HUMAN (protein, UniProt P25815 1-95, looked up) Protein S100-P: MTELETAMGMIIDVFSRYSGSEGSTQTLTKGELKVLMEKELPGFLQSGKDKDAVDKLLKDLDANGDAQVDFSEFIVFVAAITSACHKYFEKAGLK | 0.4762 | -0.3222 |  | 
10 | sp¦P42126¦ECI1_HUMAN (protein, UniProt P42126 42-302, looked up) Enoyl-CoA delta isomerase 1, …: FGSQRVLVEPDAGAGVAVMKFKNPPVNSLSLEFLTELVISLEKLENDKSFRGVILTSDRPGVFSAGLDLTEMCGRSPAHYAGYWKAVQELWLRLYQSNLVLVSAINGACPAGGCLVALTCDYRILADNPRYCIGLNETQLGIIAPFWLKDTLENTIGHRAAERALQLGLLFPPAEALQVGIVDQVVPEEQVQSTALSAIAQWMAIPDHARQLTKAMMRKATASRLVTQRDADVQNFVSFISKDSIQKSLQMYLERLKEEKG | 0.4682 | -0.3295 |  | 
11 | sp¦P61020¦RAB5B_HUMAN (protein, UniProt P61020 2-215, looked up) Ras-related protein Rab-5B: TSRSTARPNGQPQASKICQFKLVLLGESAVGKSSLVLRFVKGQFHEYQESTIGAAFLTQSVCLDDTTVKFEIWDTAGQERYHSLAPMYYRGAQAAIVVYDITNQETFARAKTWVKELQRQASPSIVIALAGNKADLANKRMVEYEEAQAYADDNSLLFMETSAKTAMNVNDLFLAIAKKLPKSEPQNLGGAAGRSRGVDLHEQSQQNKSQCCSN | 0.4514 | -0.3455 |  | 

Reference: paper PMC8298264, “Function of cofactor Akirin2 in the regulation of gene expression in model human neutrophil-like HL60 cells” (Bioscience Reports, 2021)
